Measurements from patent US20180318451A1 (published 2018).

T1: ovalbumin (UniProt P01012 2-386)
T1 sequence (looked up): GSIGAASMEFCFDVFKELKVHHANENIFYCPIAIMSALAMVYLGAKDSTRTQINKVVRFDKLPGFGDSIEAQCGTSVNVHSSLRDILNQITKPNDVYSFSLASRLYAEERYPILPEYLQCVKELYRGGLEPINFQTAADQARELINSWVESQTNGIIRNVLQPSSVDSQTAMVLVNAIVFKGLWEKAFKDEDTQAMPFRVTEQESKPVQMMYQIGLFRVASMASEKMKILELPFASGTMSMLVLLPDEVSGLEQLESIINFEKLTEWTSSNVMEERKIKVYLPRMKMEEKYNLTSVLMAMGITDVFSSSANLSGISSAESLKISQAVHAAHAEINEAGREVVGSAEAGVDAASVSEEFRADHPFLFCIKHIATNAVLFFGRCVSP


Experiments:
[1] = target: T1, ovalbumin; assay: ELISA, ovalbumin-coated wells
From the text: (§1) Enriched lipocalin variants from phage display were subjected to ELISA screening after subcloning of the central BstXI gene cassette on pNGAL98, which also encodes the N-terminal OmpA signal sequence directing the expressed protein into the bacterial periplasm and a C-terminal Strep-tag II for purification (Schmidt, T. G. & Skerra, A. [2007] Nat. Protoc. 2:1528-1535). After transformation of E. coli TG1-F- (Kim, H. J. et al. [2009] J. Am. Chem. Soc. 131:3565-3576) with the ligation mixture, randomly picked colonies were inoculated in a 96-well plate filled with 100 μL of Terrific broth (TB) media supplemented with 100 μg/mL ampicillin per well. Anticalin expression was induced at an optical density of OD₅₅₀=0.3-0.5 by addition of 20 μL TB/Amp containing 1.2 μg/mL anhydrotetracycline (aTc; ACROS Organics, 233131000) overnight at 20° C. The periplasmic extract was prepared as previously described²¹ and applied to 96-well MaxiSorp plates (Nunc, 442404) coated with rhPSMA (5 μg/mL in TBS) and blocked with BSA. Ovalbumin (10 μg/mL in TBS) served as non-related control protein in parallel. After 1 h incubation at room temperature, plates were washed three times with PBS/T and bound lipocalin variants were detected by means of their C-terminal Strep-tag II using StrepTactin conjugated to alkaline phosphatase (IBA, 2-1503-001), diluted 1:5,000 in PBS, for 1 h. Signals were developed by hydrolysis of 0.5 mg/mL p-nitrophenyl phosphate in 0.1 M NaCl, 5 mM MgCl₂, 0.1 M Tris/HCl, pH 8.8, and monitored via absorbance measurement at 405 nm with an Infinite 200 PRO microplate reader (Tecan).
Individual colonies were used for micro-scale expression in a 96-well plate and crude E. coli lysates from these cultures were screened in an ELISA for Anticalins having PSMA-binding activity. To this end, MaxiSorp plates coated with glycosylated rhPSMA were used as a target, whereas ovalbumin-coated wells were used as negative control to assess non-specific binding. Bound Anticalins were detected via the C-terminal Strep-tag II.

[2] = target: T2, rhPSMA, extracellular part of human PSMA (residues 44-750) with its native N-terminus (human, UniProt Q04609 44-750, N-glycosylated (made in Schneider S2 insect cells)); assay: ELISA, rhPSMA coated on MaxiSorp plate
T2 construct: range 44-750; No tag; also called wild-type rhPSMA; rhGCPII
From the text: as §1, with “The periplasmic extract was prepared as previously described²¹ and applied to 96-well MaxiSorp plates (Nunc, 442404) coated with rhPSMA (5 μg/mL in TBS) and blocked with BSA. Ovalbumin (10 μg/mL in TBS) served as non-related control protein in parallel.” left out, “(Tecan). […]” for “(Tecan).”

[3] = target: T2, rhPSMA, extracellular part of human …; assay: SPR (BIAcore 2000), rhPSMA on chip
Protocol: (§2) Surface plasmon resonance (SPR) spectroscopy was performed on a BIAcore 2000 instrument (BIAcore) following published procedures (Gebauer, M. et al. [2013] J. Mol. Biol. 425:780-802; De Crescenzo, G. et al. [2008] J. Mol. Recognit. 21:256-266). rhPSMA (1 nM in 10 mM Na-acetate pH 5.0) was immobilized on a CM5 sensor chip (BIAcore) using an amine coupling kit (GE Healthcare, BR100050), resulting in around 500 resonance units (ΔRU). The purified Anticalins were diluted in HEPES buffered saline (HBS; 10 mM HEPES/NaOH, 150 mM NaCl, pH 7.4) with 0.005% v/v Tween 20 to concentrations from 64-2 nM. The instrument was operated using the same running buffer at a flow rate of 25 μL/min. […] Regeneration of the sensor chip was achieved by up to four injections of 10 μL glycine/HCl, pH 2.0. The sensorgrams were corrected by double subtraction of the corresponding signals measured for the in-line control blank channel and an averaged baseline determined from three buffer blank injections³¹. Kinetic parameters were determined by data fitting using a 1:1 Langmuir binding model with BIAevaluation software version 4.1 (BIAcore).
To precisely determine kinetic and thermodynamic binding constants of the PSMA-specific Anticalin A3 and its variants, surface plasmon resonance (SPR) real-time analyses was performed on a BIAcore 2000 instrument. […]

[4] = target: T2, rhPSMA, extracellular part of human …; assay: ELISA, rhPSMA coated on MaxiSorp plate, Anticalin dilution series
From the text: (§3) FIG. 4: Anticalin affinities towards PSMA as determined by ELISA and BIAcore measurements. Binding activities of Anticalins selected from the original naïve library (A) or resulting from subsequent affinity maturation of the A3 variant (B) were compared in an ELISA. A 96-well MaxiSorp plate was coated with rhPSMA (or ovalbumin as a negative control, not shown) and purified Anticalin variants were applied in dilution series. Anticalin binding was detected using StrepTactin/AP conjugate, followed by chromogenic reaction. Absorption was plotted against the Anticalin concentration and data were analyzed by curve fitting. Binding curves for the best performing clones A3 and A3A5 are shown as solid lines. (C-E) SPR sensograms measured for Anticalins A3, A3A5 and A3A5.1 on a BIAcore 2000 instrument. Approximately 500 RU of rhPSMA was immobilized on a CM5 sensor chip by amine coupling. […]
(§4) 50 μL of rhPSMA (5 μg/mL in TBS) was directly adsorbed onto the surface of a MaxiSorp 96-well plate overnight at 4° C. […] The plates were washed three times and bound Anticalins were detected with StrepTactin-AP as described further above. The data were analyzed using Prism 5 software (GraphPad) and absorption values (A) were fitted according to the formula ΔA=Aₘₐₓ·[Lₜₒₜ]/(KD+[Lₜₒₜ]) with the concentration of the applied lipocalin variant [Lₜₒₜ] and the dissociation constant KD.

[5] = target: T2, rhPSMA, extracellular part of human …; assay: SPR (BIAcore 2000), rhPSMA amine-coupled to CM5 chip, Anticalin as analyte
Protocol: Anticalin binding was detected using StrepTactin/AP conjugate, followed by chromogenic reaction. Absorption was plotted against the Anticalin concentration and data were analyzed by curve fitting. Binding curves for the best performing clones A3 and A3A5 are shown as solid lines. (C-E) SPR sensograms measured for Anticalins A3, A3A5 and A3A5.1 on a BIAcore 2000 instrument. Approximately 500 RU of rhPSMA was immobilized on a CM5 sensor chip by amine coupling. A dilution series from 64 to 2 nM of the purified Anticalin in HBS was applied and the resulting curves were fitted according to a Langmuir 1:1 binding model. (F) Comparison of parameters from real-time SPR analysis for Anticalins investigated in C-E, together with A3A5.7, in a kₒₙ/koff plot.
as §2
To precisely determine kinetic and thermodynamic binding constants of the PSMA-specific Anticalin A3 and its variants, surface plasmon resonance (SPR) real-time analyses was performed on a BIAcore 2000 instrument. To this end, rhPSMA was chemically coupled to the carboxymethyl dextran matrix of a sensorchip using amine chemistry and a concentrations series of each Anticalin was applied.

[6] = target: T2, rhPSMA, extracellular part of human …; assay: ELISA, rhPSMA coated on MaxiSorp plate, Anticalin dilution series, detection by StrepTactin/AP
From the text: as §3, §4

[7] = target: T2, rhPSMA, extracellular part of human …; assay: SPR (BIAcore), rhPSMA on chip, Anticalin as analyte
Protocol: as §2
Several combinations of mutations occurring in the PSMA-specific Lcn2 variants A3A5.1 (carrying 5 new mutations) and A3A5.7 (carrying 4 new mutations) were prepared in order to investigate the relevance of the mutations that were found during affinity maturation for improved PSMA binding with the aim to create a combined Anticalin variant suitable for further protein engineering studies. A first combination, containing solely the mutations located in the loop regions of the Anticalins, was carried out by introducing the following mutations into the sequence of A3A5 (see SEQ ID NO:2): (i) a Y at position 71 as also present in A3A5.1, (ii) an N at position 74 as also present in A3A5.7, (iii) a D at position 103 as also present in A3A5.1. This triple substitution variant, termed A3A5.8, was obtained by gene synthesis, cloned and subsequently expressed (as described in Example 1).

T2 sequence (Q04609 44-750 limits assumed): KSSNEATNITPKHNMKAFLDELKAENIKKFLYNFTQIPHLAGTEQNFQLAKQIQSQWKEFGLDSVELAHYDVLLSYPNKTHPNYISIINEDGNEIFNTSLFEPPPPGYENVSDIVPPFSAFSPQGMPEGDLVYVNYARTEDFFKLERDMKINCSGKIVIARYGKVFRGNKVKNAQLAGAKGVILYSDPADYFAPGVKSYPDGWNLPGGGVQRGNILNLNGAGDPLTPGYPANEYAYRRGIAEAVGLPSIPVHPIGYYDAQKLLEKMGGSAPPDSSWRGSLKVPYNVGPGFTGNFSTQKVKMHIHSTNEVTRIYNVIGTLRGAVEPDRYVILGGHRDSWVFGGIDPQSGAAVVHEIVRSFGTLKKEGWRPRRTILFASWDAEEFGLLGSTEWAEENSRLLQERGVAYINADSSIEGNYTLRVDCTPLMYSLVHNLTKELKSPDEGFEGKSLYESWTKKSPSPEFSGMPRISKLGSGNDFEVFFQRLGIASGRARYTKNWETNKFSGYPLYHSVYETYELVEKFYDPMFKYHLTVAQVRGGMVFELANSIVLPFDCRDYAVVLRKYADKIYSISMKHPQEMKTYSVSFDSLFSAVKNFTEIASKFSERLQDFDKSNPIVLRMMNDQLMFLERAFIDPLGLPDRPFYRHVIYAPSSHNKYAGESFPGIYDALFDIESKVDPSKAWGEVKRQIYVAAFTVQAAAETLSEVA

Binder | binding result [1] | Kd [5] [nM] | koff [5] [s⁻¹] | kon [5] [M⁻¹ s⁻¹] | also measured
Anticalin candidate H5 (designed binder, not shown: C-terminal Strep-tag II) QDSTSDLIPAPPLSKVPLQQNFQDNQFHGKWYVVGTAGNWPLREDKDPHKMSATIYELKEDKSYNVTNVQFSSKKCLYFIGTFVPGSQPGEFTLGPIKSAPGQTSGLVRVVSTNYNQHAMVFFKQVIQNREAFIITLYGRTKELTSELKENFIRFSKSLGLPENHIVFPVPIDQCIDG | no binding |  |  |  | binding result [2]: binds
Anticalin A3A5 (designed binder, Differs from A3 by Val for Met at position 40; monomeric, 21 kDa; also called variant A3A5; not shown: C-terminal Strep-tag II) QDSTSDLIPAPPLSKVPLQQNFQDNQFHGKWYVVGLAGNVILREDKDPYKMSATIYELKEDKSYNVTNVRFYLKKCYYTIATFVPGSQPGEFTLGTIKSGPGKTSGLVRVVSTNYNQHAMVFFKEVQQNREWFIITLYGRTKELTSELKENFIRFSKSLGLPENHIVFPVPIDQCIDG |  | 2.5 | 0.00017 | 71000 | fold improvement of KD against A3 [3]: 2 fold; Kd [4]: 2.1 nM
Anticalin A3A5.7 (designed binder, Soluble form as in SPR; also called variant A3A5.7; not shown: C-terminal Strep-tag II) QDSTSDLIPAPPLSKVPLQQNFQDNQFHGKWYVVGLAGNVILREDKDPYKMSATIYELKEDKSYNVTNVRFYLNKCYYTIATFVPGSRPGEFTLGTIKSGPGKTSGLVRVVSTNYSQHAMVFFKEVQQNREWFIITLYGRTKELTSKLKENFIRFSKSLGLPENHIVFPVPIDQCIDG |  | 0.54 | 0.00014 | 270000 | 
Anticalin A3 (designed binder, Lcn2-derived lipocalin variant, monomeric, made by periplasmic secretion in E. coli from pNGAL98 with a C-terminal Strep-tag II; also called variant A3; not shown: C-terminal Strep-tag II) QDSTSDLIPAPPLSKVPLQQNFQDNQFHGKWYVVGLAGNMILREDKDPYKMSATIYELKEDKSYNVTNVRFYLKKCYYTIATFVPGSQPGEFTLGTIKSGPGKTSGLVRVVSTNYNQHAMVFFKEVQQNREWFIITLYGRTKELTSELKENFIRFSKSLGLPENHIVFPVPIDQCIDG | no binding | 4.8 | 0.00058 | 120000 | Kd [6]: 6 nM; Kd [4]: 5.8 nM
Anticalin A3A5.1 (designed binder, Soluble form as in SPR; also called variant A3A5.1; not shown: C-terminal Strep-tag II) QDSTSDLIPAPPLSKVPLQQNFQDNQFHGKWYVVGLAGNVILREDKDPYKMSATIYELNEDKSYNVTNVRYYLKKCYYTIATFVPGSQPGEYTLGTIKSGPGDTSGLVRVVSTNYNQHAMVFFKEVQQNREWFIITLYGRTKELTSKLKENFIRFSKSLGLPENHIVFPVPIDQCIDG |  | 0.66 | 0.00014 | 210000 | 
Anticalin A3A5.9 (designed binder, A3A5.8 with K for E at position 147; also called variant A3A5.9; not shown: C-terminal Strep-tag II) QDSTSDLIPAPPLSKVPLQQNFQDNQFHGKWYVVGLAGNVILREDKDPYKMSATIYELKEDKSYNVTNVRYYLNKCYYTIATFVPGSQPGEFTLGTIKSGPGDTSGLVRVVSTNYNQHAMVFFKEVQQNREWFIITLYGRTKELTSKLKENFIRFSKSLGLPENHIVFPVPIDQCIDG |  |  |  |  | Kd [7]: 0.74 nM; koff [7]: 0.00016 s⁻¹; kon [7]: 220000 M⁻¹ s⁻¹
Anticalin candidate A2 (designed binder, not shown: C-terminal Strep-tag II) QDSTSDLIPAPPLSKVPLQQNFQDNQFHGKWYVVGRAGNKPLREDKDPLKMWATIYELKEDKSYNVTIVWFDFKKCWYRISTFVPGSQPGEFTLGRIKSAPGVTSGLVRVVSTNYNQHAMVFFKYVFQNREWFHITLYGRTKELTSELKENFIRFSKSLGLPENHIVFPVPIDQCIDG | no binding |  |  |  | binding result [2]: binds
